T1: human Nup35, endogenous (human (endogenous in HeLa), UniProt Q8NFH5 1-326)
T1 chain: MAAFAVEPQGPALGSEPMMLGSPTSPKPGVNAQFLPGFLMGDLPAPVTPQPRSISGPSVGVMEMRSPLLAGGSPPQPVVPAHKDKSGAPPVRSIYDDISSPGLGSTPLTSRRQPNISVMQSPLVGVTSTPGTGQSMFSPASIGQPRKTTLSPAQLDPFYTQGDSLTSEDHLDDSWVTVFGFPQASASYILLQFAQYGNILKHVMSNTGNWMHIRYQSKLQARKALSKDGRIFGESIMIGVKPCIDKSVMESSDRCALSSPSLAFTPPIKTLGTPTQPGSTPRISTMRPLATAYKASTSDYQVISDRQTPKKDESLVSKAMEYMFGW

T2: Xenopus Nup35, endogenous (Xenopus (endogenous in egg extract))
T2 chain: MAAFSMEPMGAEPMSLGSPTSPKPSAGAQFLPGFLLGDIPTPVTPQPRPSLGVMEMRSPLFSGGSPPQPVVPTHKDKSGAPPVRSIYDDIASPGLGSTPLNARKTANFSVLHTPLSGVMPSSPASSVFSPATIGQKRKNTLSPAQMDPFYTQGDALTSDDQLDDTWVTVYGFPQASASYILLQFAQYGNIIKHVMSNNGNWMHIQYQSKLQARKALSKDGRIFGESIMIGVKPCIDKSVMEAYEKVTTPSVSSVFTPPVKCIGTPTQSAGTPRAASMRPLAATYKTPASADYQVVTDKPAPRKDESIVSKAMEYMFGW

T3: recombinant Xenopus Nup93 target (BLI) (Xenopus, UniProt Q7ZX96 1-820)
T3 chain: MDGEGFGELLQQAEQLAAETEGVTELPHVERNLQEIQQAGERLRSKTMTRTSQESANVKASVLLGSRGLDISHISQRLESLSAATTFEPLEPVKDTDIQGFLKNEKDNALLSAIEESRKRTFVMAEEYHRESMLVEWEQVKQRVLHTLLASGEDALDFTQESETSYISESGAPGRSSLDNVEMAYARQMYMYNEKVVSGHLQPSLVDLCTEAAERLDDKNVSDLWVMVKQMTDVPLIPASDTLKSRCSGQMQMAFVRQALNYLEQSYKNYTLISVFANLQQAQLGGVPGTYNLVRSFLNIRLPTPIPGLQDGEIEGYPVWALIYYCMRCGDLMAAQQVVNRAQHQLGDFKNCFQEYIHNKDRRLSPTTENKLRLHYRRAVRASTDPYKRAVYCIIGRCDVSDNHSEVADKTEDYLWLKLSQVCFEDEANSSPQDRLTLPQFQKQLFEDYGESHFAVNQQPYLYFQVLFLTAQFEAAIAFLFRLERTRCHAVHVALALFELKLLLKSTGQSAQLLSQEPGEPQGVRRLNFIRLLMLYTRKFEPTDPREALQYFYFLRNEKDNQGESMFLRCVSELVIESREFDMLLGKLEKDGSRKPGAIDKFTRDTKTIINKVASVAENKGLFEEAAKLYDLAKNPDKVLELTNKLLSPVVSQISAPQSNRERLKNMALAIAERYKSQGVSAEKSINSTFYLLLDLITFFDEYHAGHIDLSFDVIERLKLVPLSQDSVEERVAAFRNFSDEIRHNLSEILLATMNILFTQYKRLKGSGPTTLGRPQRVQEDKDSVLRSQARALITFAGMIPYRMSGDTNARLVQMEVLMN

T4: recombinant human Nup98 target (BLI) (human, UniProt P52948 1-880)
T4 chain: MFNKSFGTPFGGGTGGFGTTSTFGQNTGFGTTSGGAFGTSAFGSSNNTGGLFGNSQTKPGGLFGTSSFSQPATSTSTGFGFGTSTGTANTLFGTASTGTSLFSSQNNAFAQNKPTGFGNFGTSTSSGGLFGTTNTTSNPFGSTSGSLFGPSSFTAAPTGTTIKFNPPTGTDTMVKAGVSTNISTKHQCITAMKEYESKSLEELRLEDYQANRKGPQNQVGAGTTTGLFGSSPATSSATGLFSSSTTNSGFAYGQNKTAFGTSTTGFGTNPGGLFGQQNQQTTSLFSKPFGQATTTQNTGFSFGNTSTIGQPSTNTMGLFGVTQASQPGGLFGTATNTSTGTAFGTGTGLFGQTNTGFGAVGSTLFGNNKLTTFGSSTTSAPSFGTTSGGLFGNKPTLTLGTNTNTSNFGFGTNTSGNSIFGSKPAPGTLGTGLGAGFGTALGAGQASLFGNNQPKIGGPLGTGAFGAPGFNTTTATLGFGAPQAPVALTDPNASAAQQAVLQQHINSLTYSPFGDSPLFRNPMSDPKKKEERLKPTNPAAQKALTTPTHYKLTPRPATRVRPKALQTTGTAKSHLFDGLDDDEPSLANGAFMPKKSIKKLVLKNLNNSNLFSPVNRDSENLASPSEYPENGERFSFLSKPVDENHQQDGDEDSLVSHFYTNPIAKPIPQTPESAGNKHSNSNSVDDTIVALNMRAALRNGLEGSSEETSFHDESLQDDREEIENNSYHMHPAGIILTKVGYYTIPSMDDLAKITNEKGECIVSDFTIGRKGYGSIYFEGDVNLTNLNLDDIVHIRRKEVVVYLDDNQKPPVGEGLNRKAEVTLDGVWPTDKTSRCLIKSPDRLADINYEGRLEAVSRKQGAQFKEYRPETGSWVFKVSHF

T5: recombinant Xenopus Nup98 target (BLI) (Xenopus)
T5 chain: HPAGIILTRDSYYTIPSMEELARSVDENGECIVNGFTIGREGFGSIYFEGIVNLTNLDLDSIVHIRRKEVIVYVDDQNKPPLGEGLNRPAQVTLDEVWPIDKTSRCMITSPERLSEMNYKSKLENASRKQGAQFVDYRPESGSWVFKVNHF

B1: xhNup35-Nb1t (VHH)
VHH: QVQLVESGGGLVQAGGSLRLSCVGTGNISSAYTMAWYRQAAGKEREVVAGILNGGSTHYADSVKGRFTISRDNAKNTVYLQMNSLQPEDTGVYCCHVVIESTRFVYDHYWGQGTRVTVSS
B2: recombinant human Nup93 target (BLI) (natural protein)
chain: MDTEGFGELLQQAEQLAAETEGISELPHVERNLQEIQQAGERLRSRTLTRTSQETADVKASVLLGSRGLDISHISQRLESLSAATTFEPLEPVKDTDIQGFLKNEKDNALLSAIEESRKRTFGMAEEYHRESMLVEWEQVKQRILHTLLASGEDALDFTQESEPSYISDVGPPGRSSLDNIEMAYARQIYIYNEKIVNGHLQPNLVDLCASVAELDDKSISDMWTMVKQMTDVLLTPATDALKNRSSVEVRMEFVRQALAYLEQSYKNYTLVTVFGNLHQAQLGGVPGTYQLVRSFLNIKLPAPLPGLQDGEVEGHPVWALIYYCMRCGDLLAASQVVNRAQHQLGEFKTWFQEYMNSKDRRLSPATENKLRLHYRRALRNNTDPYKRAVYCIIGRCDVTDNQSEVADKTEDYLWLKLNQVCFDDDGTSSPQDRLTLSQFQKQLLEDYGESHFTVNQQPFLYFQVLFLTAQFEAAVAFLFRMERLRCHAVHVALVLFELKLLLKSSGQSAQLLSHEPGDPPCLRRLNFVRLLMLYTRKFESTDPREALQYFYFLRDEKDSQGENMFLRCVSELVIESREFDMILGKLENDGSRKPGVIDKFTSDTKPIINKVASVAENKGLFEEAAKLYDLAKNADKVLELMNKLLSPVVPQISAPQSNKERLKNMALSIAERYRAQGISANKFVDSTFYLLLDLITFFDEYHSGHIDRAFDIIERLKLVPLNQESVEERVAAFRNFSDEIRHNLSEVLLATMNILFTQFKRLKGTSPSSSSRPQRVIEDRDSQLRSQARTLITFAGMIPYRTSGDTNARLVQMEVLMN
B3: xhNup93-Nb4i, biotinylated for BLI (VHH)
VHH: QVQLVESGGGVVQTGDSLMLSCTVSGHTIDNWAMGWFRQTPRKQREFVAAIDKRGTGAIYGNSVKGRFTVSRDNAKNMVYLRMNSLKPEDTAVYFCAVDQLNAGLGDVSYDYDYWGQGTQVTVSS
modifications: Biotin-[PEG]3-maleimide on two ectopic cysteines
B4: xhNup98-Nb2i, biotinylated for BLI (VHH)
VHH: QVQLVESGGGLAKPGGSLRLSCVATGTFRSMEDVGWYRQAPGKDRELVAEITTLGKVTYADSVKGRFTISRDDAKNAVYLQMSDLKSEDTAVYYCNIEADQTKGIGYVVYPYWGQGTRVTVSS
modifications: Biotin-[PEG]3-maleimide on two ectopic cysteines
B5: xNup98-Nb1t (as added in the binding assay of Fig. 11C) (VHH)
VHH: QVQLVESGGGPVEAGGSLRLSCAASGRSFSNSVMAWFRQAPGKEREFLSVLNWSSGRTSIADSVKGRFTMSRDPAKITVYLQMNGLKPEDTAVYYCAASNRGSLYTLDNQNRYEDWGQGTQVTVSS
B6: xNup93-Nb2t (VHH)
VHH: DVQLVESGGGLVQPGGSLRLSCVASGFTFSRVGMGWVRQAPGKGLEWVSDINASGGTGYADSVKGRFAISRDNAKNTLYLQMNRLKPEDTAVYYCAKMMDTAMIEAGIIKPAGQGTQVTVSS
B7: xhNup98-Nb3i (VHH)
VHH: QVQLVESGGGLVQAGGSLRLSCAASGRTFSTYAMGWFRQAPGKEREFVSACSWSGGITRYADSVKGRFTISRDNAKNTVYLQMNSLKPEDTAVYYCASAASSAAYSGAYYYTSYYDYWGQGTQVTVSS

Holding throughout (assay): BLI
One assay addresses T1, human Nup35, endogenous.
Assay [1] has as its target T2, Xenopus Nup35, endogenous.
The target of another assay is xhNup93-Nb3t.
The target of assay [2] is B2.
The target of assay [3] is T3, recombinant Xenopus Nup93 target (BLI).
Assay [4] deals with T4, recombinant human Nup98 target (BLI).
Assay [5] concerns the target T5, recombinant Xenopus Nup98 target (BLI).

The source of these data is article PMC11148069 (2024).

In the case of B1, the Kd with human Nup35, endogenous is 0.8 nM; in assay [1] it was 0.5 nM.
B2: binding with xhNup93-Nb3t was characterised by a dissociation constant (Kd) of 1 nM.
Turning to B3, the dissociation constant (Kd) was 3 nM in assay [2] and less than 0.01 nM in assay [3].
As for B4, the Kd in assay [4] is 0.02 nM; in assay [5], less than 0.01 nM.
For B5 the same measures were more than 100 nM and 1.7 nM.
As for B6, the Kd in assay [3] was determined as 4 nM.
Regarding B7, the Kd in assay [4] and in assay [5] was less than 0.01 nM throughout.

What is called Kd is a measure of binding affinity in units of concentration.
